Assay [1] has as its target T1, human B7-2-his (human, UniProt P42081 24-247, limits assumed).
T1 construct: Bought protein; not shown: his tag
T1 sequence (looked up): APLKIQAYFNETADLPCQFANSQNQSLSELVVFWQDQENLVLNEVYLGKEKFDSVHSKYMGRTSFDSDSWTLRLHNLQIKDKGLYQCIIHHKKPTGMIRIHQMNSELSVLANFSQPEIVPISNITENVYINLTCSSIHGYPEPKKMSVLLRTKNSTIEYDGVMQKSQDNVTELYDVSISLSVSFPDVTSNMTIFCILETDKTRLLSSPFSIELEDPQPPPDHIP
Nature of the assay: ELISA, antigen coated at 1 ug/ml.

For assay [2], the target named is T2, rat B7-H3-2Ig-His protein (rat, UniProt Q7TPB4 29-248).
T2 construct: extracellular domain; also called rat B7-H3-his
T2 sequence: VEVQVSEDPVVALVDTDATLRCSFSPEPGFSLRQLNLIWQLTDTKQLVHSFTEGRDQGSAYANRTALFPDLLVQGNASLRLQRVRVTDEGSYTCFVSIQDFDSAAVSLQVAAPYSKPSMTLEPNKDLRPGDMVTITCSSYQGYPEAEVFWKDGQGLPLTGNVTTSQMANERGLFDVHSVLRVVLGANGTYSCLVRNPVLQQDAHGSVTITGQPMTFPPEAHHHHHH
Kind of assay: BLI (ForteBio), antibody captured on Protein A sensor, antigen in solution.

For assay [3], the target named is T3, rat B7-H3 on CHO-S cells (CHO-S-rat B7-H3) (rat, UniProt Q7TPB4 29-316).
T3 construct: whole, on cells; also called rat B7-H3-overexpressed cells
T3 sequence (looked up): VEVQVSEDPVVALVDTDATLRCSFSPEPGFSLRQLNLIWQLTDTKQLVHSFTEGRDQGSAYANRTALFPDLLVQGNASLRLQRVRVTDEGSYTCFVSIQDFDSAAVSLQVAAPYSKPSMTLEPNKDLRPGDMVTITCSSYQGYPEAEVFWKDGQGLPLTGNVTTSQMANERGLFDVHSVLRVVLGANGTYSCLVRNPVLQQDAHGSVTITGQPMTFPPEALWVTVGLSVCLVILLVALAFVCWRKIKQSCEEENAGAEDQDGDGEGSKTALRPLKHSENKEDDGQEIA
Nature of the assay: flow cytometry on CHO-S-rat B7-H3 cells. Background: A flow cytometer gives signals particle by particle.

In assay [4] the target is T4, human B7-H3-4Ig-His protein (human, UniProt Q5ZPR3 29-466).
T4 construct: extracellular domain; Made in HEK293-EBNA cells
T4 sequence: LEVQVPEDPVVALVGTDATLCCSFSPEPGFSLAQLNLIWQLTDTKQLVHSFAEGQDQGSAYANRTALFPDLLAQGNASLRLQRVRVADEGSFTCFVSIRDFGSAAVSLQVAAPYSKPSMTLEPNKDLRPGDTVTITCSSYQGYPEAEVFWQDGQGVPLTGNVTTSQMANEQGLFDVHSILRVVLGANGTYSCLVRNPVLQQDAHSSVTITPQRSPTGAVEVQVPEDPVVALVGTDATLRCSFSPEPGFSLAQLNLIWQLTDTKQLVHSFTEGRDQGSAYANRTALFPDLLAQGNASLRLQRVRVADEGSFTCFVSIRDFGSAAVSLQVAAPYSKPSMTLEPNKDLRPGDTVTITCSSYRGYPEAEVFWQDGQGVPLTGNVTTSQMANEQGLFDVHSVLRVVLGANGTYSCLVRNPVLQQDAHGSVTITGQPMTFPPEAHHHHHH
Kind of assay: ELISA, antigen coated at 1 ug/ml.

The target in assay [5] is T5, human B7-H3 on human tumor cells (MCF-7, HT29, NCI-N87, HCC1806, HCC827) (human, UniProt Q5ZPR3 29-534).
T5 construct: whole, on cells
T5 sequence (looked up): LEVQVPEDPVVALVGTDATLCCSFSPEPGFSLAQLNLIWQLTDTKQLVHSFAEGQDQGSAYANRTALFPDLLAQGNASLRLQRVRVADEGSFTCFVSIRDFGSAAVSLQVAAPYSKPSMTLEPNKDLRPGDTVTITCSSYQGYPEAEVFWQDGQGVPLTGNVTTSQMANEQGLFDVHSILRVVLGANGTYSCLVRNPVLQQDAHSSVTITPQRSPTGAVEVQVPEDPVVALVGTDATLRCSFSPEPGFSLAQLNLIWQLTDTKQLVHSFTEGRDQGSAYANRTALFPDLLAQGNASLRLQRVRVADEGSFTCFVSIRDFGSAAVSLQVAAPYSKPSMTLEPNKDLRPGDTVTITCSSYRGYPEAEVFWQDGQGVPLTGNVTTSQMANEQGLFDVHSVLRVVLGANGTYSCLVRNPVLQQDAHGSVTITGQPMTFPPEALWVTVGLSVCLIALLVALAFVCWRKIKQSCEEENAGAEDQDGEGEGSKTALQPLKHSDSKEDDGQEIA
Kind of assay: flow cytometry on HCC1806 cells.

For assay [6], the target named is T6, monkey B7-H3 on CHO-S cells (CHO-S-monkey B7-H3) (monkey).
T6 construct: whole, on cells; also called monkey B7-H3-overexpressed cells
Nature of the assay: flow cytometry on CHO-S-monkey B7-H3 cells.

The target in assay [7] is T5, human B7-H3 on human tumor cells …. Kind of assay: flow cytometry on HT29 cells.
Assay [8] has the same target. Nature of the assay: cell-based or functional assay.
Assay [9] addresses T7, human B7-H1-mFc (human, UniProt Q9NZQ7 19-238).
T7 construct: Self-constructed; not shown: mFc
Kind of assay: ELISA, antigen coated at 1 ug/ml, 2#8890-biotin detected with streptavidin-peroxidase. Background: An ELISA detects its analyte on a solid surface through an enzyme-linked reagent.

For assay [10], the target named is T8, human B7-H4-hFc (human, UniProt Q7Z7D3 25-259).
T8 construct: Bought protein; not shown: hFc
T8 sequence (looked up): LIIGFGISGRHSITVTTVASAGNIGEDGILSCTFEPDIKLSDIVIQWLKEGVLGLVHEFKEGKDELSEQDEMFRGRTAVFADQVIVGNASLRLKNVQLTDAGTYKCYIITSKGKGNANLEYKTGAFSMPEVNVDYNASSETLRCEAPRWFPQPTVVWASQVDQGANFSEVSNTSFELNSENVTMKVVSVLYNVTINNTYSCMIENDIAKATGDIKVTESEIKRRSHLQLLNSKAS
The description is as above.

For orientation: EC50 means the concentration needed to bring the measured effect to its halfway point.

T7 sequence (Q9NZQ7 19-238): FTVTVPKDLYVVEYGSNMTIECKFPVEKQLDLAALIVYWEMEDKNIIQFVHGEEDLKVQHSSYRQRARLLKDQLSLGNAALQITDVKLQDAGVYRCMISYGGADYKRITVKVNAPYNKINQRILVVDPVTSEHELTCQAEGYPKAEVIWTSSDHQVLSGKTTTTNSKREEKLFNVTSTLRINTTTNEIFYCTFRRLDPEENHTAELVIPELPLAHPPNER

B1: anti-human-B7-H3 human antibody 2#8890 (antibody, human IgG1, kappa, V domains shown)
VH: QVQLQESGPGLVQPSGTLSLTCAVSGGSDSSTNWWTWVRQSPGQGLEWIGEISPIGFTSYSPSLRSRVTISVDKSKTQFSLKLSSVTAADTAVYYCARDRLYFAFWGQGTLVTVSS
VL: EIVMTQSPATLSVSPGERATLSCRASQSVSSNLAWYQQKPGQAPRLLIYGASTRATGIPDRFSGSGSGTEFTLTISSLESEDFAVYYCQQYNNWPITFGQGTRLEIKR
As to B1, the binding result in [1] is recorded as “no binding (tested: 10 ug/ml highest concentration)”; in assay [2], “no binding (tested: 200 nM highest concentration)”; in assay [3], “no binding (tested: 10 ug/ml highest concentration)”; in assay [9] it was “no binding (tested: 10 ug/ml highest concentration)”; in assay [10], “no binding (tested: 10 ug/ml highest concentration)”. Further, the 50% effective concentration (EC50) in [4] is 0.00193 µg/mL; in assay [5] it was 0.00967 µg/mL; in assay [6], 0.0649 µg/mL; in [7], 0.00634 µg/mL. Besides, the “Endocytosis EC50 on HCC827 cells (PHrodo, flow cytometry)” value in assay [8] was determined as 0.0102 µg/mL. Further, in assay [8], the “Endocytosis EC50 on HCC1806 cells (PHrodo, flow cytometry)” value stood at 0.0206 µg/mL. Also, the “Endocytosis EC50 on NCI-N87 cells (PHrodo, flow cytometry)” value in assay [8] came to 0.0122 µg/mL.

The record behind these values is EP4596582A1 (Sichuan Kelun-Biotech Biopharmaceutical Co., Ltd., dated 2025).
